# Laboratory results: paper PMC11470125
# T1: LbuCas13a (Leptotrichia buwadei? (printed only as …, UniProt C7NBY4 1-1159))
# T1 sequence: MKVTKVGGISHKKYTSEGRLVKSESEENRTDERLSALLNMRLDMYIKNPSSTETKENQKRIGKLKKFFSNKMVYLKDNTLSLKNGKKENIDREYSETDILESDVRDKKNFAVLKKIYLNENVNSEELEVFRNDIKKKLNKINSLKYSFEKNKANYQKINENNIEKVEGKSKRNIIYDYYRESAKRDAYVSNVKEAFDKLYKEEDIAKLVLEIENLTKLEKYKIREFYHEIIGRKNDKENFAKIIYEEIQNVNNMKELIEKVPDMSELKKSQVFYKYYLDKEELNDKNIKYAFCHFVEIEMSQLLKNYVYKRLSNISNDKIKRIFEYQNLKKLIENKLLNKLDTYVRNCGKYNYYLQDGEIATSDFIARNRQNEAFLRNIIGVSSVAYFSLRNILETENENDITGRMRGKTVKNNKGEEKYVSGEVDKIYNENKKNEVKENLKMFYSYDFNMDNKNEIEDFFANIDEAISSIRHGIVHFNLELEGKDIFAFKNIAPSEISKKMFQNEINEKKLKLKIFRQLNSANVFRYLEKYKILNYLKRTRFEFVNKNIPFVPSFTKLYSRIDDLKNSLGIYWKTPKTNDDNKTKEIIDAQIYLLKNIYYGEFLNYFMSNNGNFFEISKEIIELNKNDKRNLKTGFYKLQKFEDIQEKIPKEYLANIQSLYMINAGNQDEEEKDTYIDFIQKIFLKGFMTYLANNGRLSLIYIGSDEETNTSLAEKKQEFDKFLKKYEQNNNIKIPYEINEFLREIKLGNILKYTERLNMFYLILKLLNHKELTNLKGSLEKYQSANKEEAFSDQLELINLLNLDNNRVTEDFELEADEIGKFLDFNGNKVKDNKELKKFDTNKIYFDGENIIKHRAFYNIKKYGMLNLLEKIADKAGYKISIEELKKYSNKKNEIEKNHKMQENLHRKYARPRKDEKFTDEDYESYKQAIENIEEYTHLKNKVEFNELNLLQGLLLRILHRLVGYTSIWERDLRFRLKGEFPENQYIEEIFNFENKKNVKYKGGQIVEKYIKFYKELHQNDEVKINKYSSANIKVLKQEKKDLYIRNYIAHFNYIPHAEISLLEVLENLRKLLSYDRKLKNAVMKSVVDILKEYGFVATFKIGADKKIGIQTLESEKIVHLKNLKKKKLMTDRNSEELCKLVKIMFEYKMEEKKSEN
# B1: Cas13a crRNA with scrambled ssDNA, unlabelled competitor (mixed)
# RNA: GAUUUAGACCACCCCAAAAAUGAAGGGGACUAAAACUGGGUGUUUGACAAGUUGUAUUGCAAUC
# DNA: TCCACATCATCACTATTAACAAGGAACACTCCGAGGGT
# Target: T1, LbuCas13a
# Test: competition
binder,measurement,value
B1,binding result,no binding
